± gives the uncertainty stated by the source.
B1: Chromodomain-helicase-DNA-binding protein 4, residues 365 to 417; numbered along this chain, Q14839 (parent)
chain: YETDHQDYCEVCQQGGEIILCDTCPRAYHMVCLDPDMEKAPEGKWSCPHCEKE

Variants of: B1
Assay: abundance fitness (aPCA) (normalised: wild type 0, dead -1); higher = more abundant; growth selection in yeast, the domain comes from the species named
Conditions: Homo sapiens
Work on E10C yielded an abundance fitness of -0.26 ± 0.17. E10F gave an abundance fitness of -0.015 ± 0.14. With E10W the abundance fitness was 0.015 ± 0.14. E10L gave an abundance fitness of 0 ± 0.12. In the case of E10T, the abundance fitness is reported as -0.093 ± 0.15. Variant E10P has an abundance fitness of -0.157 ± 0.14. Work on E10I yielded an abundance fitness of 0.204 ± 0.2. In the case of E10S, the abundance fitness is reported as 0.035 ± 0.11. For E10K, the abundance fitness was -0.063 ± 0.15. Work on E10Q yielded an abundance fitness of -0.358 ± 0.24. Work on E10Y yielded an abundance fitness of 0.133 ± 0.21. Variant E10V has an abundance fitness of -0.197 ± 0.1. For E10R, the abundance fitness was -0.022 ± 0.11. With P25M the abundance fitness was -0.194 ± 0.15. P25R showed an abundance fitness of -0.054 ± 0.094. P25E gave an abundance fitness of 0.198 ± 0.12. Variant P25H has an abundance fitness of -0.485 ± 0.46. In the case of P25C, the abundance fitness is reported as 0.034 ± 0.15. For P25L, the abundance fitness was -0.044 ± 0.12. P25V showed an abundance fitness of -0.241 ± 0.11. P25Q gave an abundance fitness of -0.058 ± 0.15. Variant P25S has an abundance fitness of 0.068 ± 0.11. P25D gave an abundance fitness of -0.276 ± 0.18. P25K showed an abundance fitness of -0.274 ± 0.22. With P25I the abundance fitness was -0.057 ± 0.27. Variant P25G has an abundance fitness of -0.044 ± 0.096. P25F showed an abundance fitness of 0.079 ± 0.14. With P25N the abundance fitness was 0.185 ± 0.19. Variant P25Y has an abundance fitness of -0.135 ± 0.25. P25T gave an abundance fitness of -0.192 ± 0.22. P25W showed an abundance fitness of -0.27 ± 0.13. Work on P25A yielded an abundance fitness of -0.243 ± 0.11. D22T showed an abundance fitness of 0.089 ± 0.12. D22G gave an abundance fitness of -0.021 ± 0.09. For D22L, the abundance fitness was -0.34 ± 0.13. Work on D22Y yielded an abundance fitness of -0.42 ± 0.23. For D22P, the abundance fitness was -0.721 ± 0.26. With D22I the abundance fitness was 0.03 ± 0.2. D22V gave an abundance fitness of -0.065 ± 0.11. Work on D22S yielded an abundance fitness of -0.272 ± 0.12. For D22Q, the abundance fitness was 0.083 ± 0.21. In the case of D22A, the abundance fitness is reported as 0.056 ± 0.098. Work on D22W yielded an abundance fitness of -0.219 ± 0.14. With D22F the abundance fitness was -0.129 ± 0.19. D22N showed an abundance fitness of -0.101 ± 0.14. For D22H, the abundance fitness was -0.528 ± 0.28. With E17T the abundance fitness was -0.033 ± 0.11. Variant E17R has an abundance fitness of -0.115 ± 0.086. In the case of E17N, the abundance fitness is reported as 0.115 ± 0.13. Work on E17K yielded an abundance fitness of -0.153 ± 0.15. For E17C, the abundance fitness was -0.308 ± 0.14. Variant E17D has an abundance fitness of -0.109 ± 0.12. With E17F the abundance fitness was -0.222 ± 0.11. For E17M, the abundance fitness was -0.149 ± 0.15. Variant E17A has an abundance fitness of -0.149 ± 0.12. In the case of E17W, the abundance fitness is reported as -0.412 ± 0.12. In the case of E17S, the abundance fitness is reported as -0.033 ± 0.09. E17I gave an abundance fitness of -0.199 ± 0.14. Work on E17Y yielded an abundance fitness of -0.055 ± 0.13. E17Q gave an abundance fitness of -0.135 ± 0.17. E17H showed an abundance fitness of -0.11 ± 0.16. Work on E17V yielded an abundance fitness of -0.076 ± 0.11. E17G gave an abundance fitness of -0.171 ± 0.1. Variant E17L has an abundance fitness of -0.322 ± 0.085. With C24V the abundance fitness was -0.99 ± 0.13. With C24T the abundance fitness was -0.768 ± 0.21. C24A showed an abundance fitness of -1.1 ± 0.15. Work on C24M yielded an abundance fitness of -0.751 ± 0.15. In the case of C24Q, the abundance fitness is reported as -1.15 ± 0.28. Variant C24E has an abundance fitness of -0.822 ± 0.17. C24P showed an abundance fitness of -0.652 ± 0.17. Variant C24G has an abundance fitness of -0.695 ± 0.1. C24I showed an abundance fitness of -1.18 ± 0.36. Variant C24S has an abundance fitness of -0.681 ± 0.15. With C24W the abundance fitness was -0.901 ± 0.16. Variant C24L has an abundance fitness of -1.19 ± 0.16. In the case of C24N, the abundance fitness is reported as -0.401 ± 0.22. In the case of C24Y, the abundance fitness is reported as -1.31 ± 0.25. C24R showed an abundance fitness of -0.775 ± 0.11. For C24F, the abundance fitness was -0.882 ± 0.27. Variant C24D has an abundance fitness of -0.647 ± 0.2. For L20Q, the abundance fitness was -0.022 ± 0.18. L20Y gave an abundance fitness of -0.179 ± 0.2.
